Molecular target: the molecule itself
Experiment: X-ray crystal structure of GmPDH1-NADP+-citrate, 1.69 A
Description: Crystals of GmPDH1 M219T/N222D formed in 16% (w/v) PEG 8000, 40 mM potassium phosphate dibasic, and 20% (v/v) glycerol. All crystals were flash-frozen in liquid nitrogen with mother liquor supplemented with 25% glycerol as a cryoprotectant.
The GmPDH1 structure was solved by single-wavelength anomalous dispersion (SAD) phasing. Diffraction data collected at beamline 19ID of the Argonne National Laboratory Advanced Photon Source were indexed, integrated, and scaled using HKL3000⁴⁸. SHELX⁴⁹ was used to determine initial SeMet positions and to estimate initial phases from the peak wavelength data set. SeMet positions and parameters were refined in MLPHARE⁵⁰. Solvent flattening was performed with DM⁵¹, and ARP/wARP⁵² was used to build an initial model. Iterative rounds of manual model building and refinement were performed with COOT⁵³ and PHENIX⁵⁴, respectively. The resulting model was used for molecular replacement into the higher resolution native data set using PHASER⁵⁵. Iterative rounds of manual model building and refinement, which included translation-libration-screen (TLS) models, used COOT and PHENIX, respectively. The native GmPDH1 structure was used for molecular replacement to solve the GmPDH1 N222D and GmPDH1 M219T/N222D structures. Each mutant structure was built and refined using the same method as the wild-type enzyme. […]

B1: Glycine max (soybean) prephenate dehydrogenase GmPDH1, wild type (enzyme)
chain: MSTSSSSQSLKIGIVGFGNFGQFLAKTMIKQGHTLTATSRSDYSELCLQMGIHFFRDVSAFLTADIDVIVLCTSILSLSEVVGSMPLTSLKRPTLFVDVLSVKEHPRELLLRELPEDSDILCTHPMFGPQTAKNGWTDHTFMYDKVRIRDEVICSNFIQIFATEGCKMVQMSCEEHDRAAAKSQFITHTIGRTLGEMDIQSTPIDTKGFETLVKLKETMMRNSFDLYSGLFVYNRFARQELENLEHALHKVKETLMIQRTNGEQGHKRTES
notes: also called Gm18g02650; 18g02650; not shown: N-terminal 6x-His tag from the pET28a vector
B1: binds.

— patent publication US20250136952A1 (WISCONSIN ALUMNI RESEARCH FOUNDATION, published 2025)
